From US20230365662A1
Changes are numbered by the printed parent chain. In names and notes the source's numbering stands. Several values for one entry are separate records, joined by “and”; a condition that tells them apart may be missing. Identical values can stand only once.

B1: KB001 mouse Fab VL S53E (Fab, V domains shown)
VH: EVQLKQSGPGLVAPSQSLSITCTVSGFSLSIYSVHWVRQPPGKGLEWLGMIWGGGSSDYNSALKSRLSISKDNSKSQVFLKMNSLQTDDTAMYYCARNGNFYAMDYWGQGTSVTVSS
VL: QIVLTQSPAIMSASLGERVTMTCTASSSVSSSFLHWYQQKPGSSPQLWIYSTENLASGVPARFSGSGSGTSYSLTISSMEAEDAATYYCHQYHHSPYIYTFGGGTKLEIK
B2: KB001 mouse Fab VL S53V (Fab, V domains shown)
VH: B1 VH
VL: B1 VL with E53V
B3: KB001 mouse Fab VL N54I (Fab, V domains shown)
VH: B1 VH
VL: B1 VL with E53S, N54I
B4: KB001 mouse Fab VL N54K (Fab, V domains shown)
VH: B1 VH
VL: B1 VL with E53S, N54K
B5: KB001 mouse Fab VL N54W (Fab, V domains shown)
VH: B1 VH
VL: B1 VL with E53S, N54W
B6: KB001 mouse Fab VL N54E (Fab, V domains shown)
VH: B1 VH
VL: B1 VL with E53S, N54E
B7: KB001 mouse Fab VL N54D (Fab, V domains shown)
VH: B1 VH
VL: B1 VL with E53S, N54D
B8: KB001 mouse Fab VL N54F (Fab, V domains shown)
VH: B1 VH
VL: B1 VL with E53S, N54F
B9: KB001 mouse Fab VL N54L (Fab, V domains shown)
VH: B1 VH
VL: B1 VL with E53S, N54L
B10: KB001 mouse Fab VL N54A (Fab, V domains shown)
VH: B1 VH
VL: B1 VL with E53S, N54A
B11: KB001 mouse Fab VL L55Q (Fab, V domains shown)
VH: B1 VH
VL: B1 VL with E53S, L55Q
B12: KB001 mouse Fab VL L55S (Fab, V domains shown)
VH: B1 VH
VL: B1 VL with E53S, L55S
B13: KB001 mouse Fab VL L55T (Fab, V domains shown)
VH: B1 VH
VL: B1 VL with E53S, L55T
B14: KB001 mouse Fab VL L55H (Fab, V domains shown)
VH: B1 VH
VL: B1 VL with E53S, L55H
B15: KB001 mouse Fab VL L55K (Fab, V domains shown)
VH: B1 VH
VL: B1 VL with E53S, L55K
B16: KB001 mouse Fab VL L55V (Fab, V domains shown)
VH: B1 VH
VL: B1 VL with E53S, L55V

target: HRgpA-6H (Porphyromonas gingivalis) (UniProt P28784); assay: ELISA, FASEBA Fab on coated HRgpA-6H
Chain of UniProt P28784 (P28784 228-991): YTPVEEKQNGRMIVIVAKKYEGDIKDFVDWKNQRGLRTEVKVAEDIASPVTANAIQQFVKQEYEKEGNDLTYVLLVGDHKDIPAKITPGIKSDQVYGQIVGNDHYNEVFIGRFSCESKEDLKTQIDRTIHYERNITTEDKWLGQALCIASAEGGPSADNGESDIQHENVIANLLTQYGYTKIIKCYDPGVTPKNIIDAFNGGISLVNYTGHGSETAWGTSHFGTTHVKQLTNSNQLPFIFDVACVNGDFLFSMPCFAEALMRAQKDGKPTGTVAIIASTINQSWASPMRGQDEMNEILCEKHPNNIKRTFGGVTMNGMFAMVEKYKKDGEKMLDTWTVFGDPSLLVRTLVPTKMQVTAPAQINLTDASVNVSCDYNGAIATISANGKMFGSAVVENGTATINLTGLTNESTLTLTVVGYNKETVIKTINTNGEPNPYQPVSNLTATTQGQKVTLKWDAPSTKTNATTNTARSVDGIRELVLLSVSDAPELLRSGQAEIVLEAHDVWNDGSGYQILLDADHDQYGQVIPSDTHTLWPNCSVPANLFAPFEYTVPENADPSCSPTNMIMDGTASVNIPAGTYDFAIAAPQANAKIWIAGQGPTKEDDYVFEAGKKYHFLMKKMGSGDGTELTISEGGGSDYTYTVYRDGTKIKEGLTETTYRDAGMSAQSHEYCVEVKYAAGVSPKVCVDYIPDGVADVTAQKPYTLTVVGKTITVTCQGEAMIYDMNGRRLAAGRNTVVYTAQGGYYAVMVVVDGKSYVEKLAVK

Binder	OD450nm	Ratio OD(Variant)/OD(WT)
B1	0.766	0.973
B2	0.702	0.891
B3	0.755 and 0.772 and 0.754	0.964 and 0.985 and 0.962
B4	0.727	0.928
B5	0.646	0.825
B6	0.744 and 0.74	0.95 and 0.944
B7	0.725	0.925
B8	0.765	0.976
B9	0.774	0.988
B10	0.776	0.99
B11	0.711 and 0.692 and 0.684	0.907 and 0.883 and 0.873
B12	0.672	0.858
B13	0.727	0.928
B14	0.695 and 0.731	0.887 and 0.933
B15	0.769	0.981
B16	0.706	0.901
